Data on nine molecules can be found in patent US20240218062A1 (DEVELOPMENT CENTER FOR BIOTECHNOLOGY, published 2024).

One experiment has as its target NTSR1 protein (UniProt P30989 1-418, limits assumed). Briefly: SPR, Biacore T200, NTSR1 protein on CM5 chip, multi-cycle kinetics, 25 C. As for the experimental part:
To know the binding kinetics differences among individual anti-NTSR1 antibodies, surface plasmon resonance (SPR) measurement with BIACORE™ T200 (CYTIVA® Inc.) was used as previously described (Karlsson & Falt, (1997) J. Immunol Methods 200:121-133). Carboxymethylated dextran biosensor chips (CM5, CYTIVA® Inc.) were activated with N-ethyl-N′-(3-dimethylaminopropyl)-carbodiimide hydrochloride (EDC) and N-hydroxysuccinimide (NHS) according to the supplier's instructions. NTSR1 protein was diluted with 10 mM sodium acetate, pH 4.0, into 5 μg/ml before injection at a flow rate of 10 μL/minute to achieve approximately 1500 response units (RU) of coupled protein followed by the injection of 1 M ethanolamine to block unreacted groups. For kinetics measurements, two-fold serial dilutions of anti-NTSR1 mAb (0.3125 nM to 40 nM) were injected in HBS-EP+BIACORET™ running buffer provided by the manufacturer (CYTIVA® Inc.) at 25° C. at a flow rate of 30 μL/min, and binding responses on the NTSR1 protein were corrected by subtraction of responses on a blank flow cell. Association rates (kₒₙ or Kₐ) and dissociation rates (koff or Kd) were calculated using a simple one-to-one Langmuir binding model with separate fittings of kₒₙ and koff. (CYTIVA® BIACORET™ Insight Evaluation Software).

Experiment [1] has as its target NTSR1 linear L2-biotin protein (human) (UniProt P30989). Description: ELISA titration on NTSR1, anti-human IgG-HRP, OD450 minus OD650.
Experiment [2] deals with T1, NTSR1 on FaDu cells (human, UniProt P30989 1-418).
T1 construct: whole, on cells; Endogenous NTSR1 on the human FaDu cell line; also called NTSR1 expressing cells, FaDu
T1 sequence (P30989 whole entry): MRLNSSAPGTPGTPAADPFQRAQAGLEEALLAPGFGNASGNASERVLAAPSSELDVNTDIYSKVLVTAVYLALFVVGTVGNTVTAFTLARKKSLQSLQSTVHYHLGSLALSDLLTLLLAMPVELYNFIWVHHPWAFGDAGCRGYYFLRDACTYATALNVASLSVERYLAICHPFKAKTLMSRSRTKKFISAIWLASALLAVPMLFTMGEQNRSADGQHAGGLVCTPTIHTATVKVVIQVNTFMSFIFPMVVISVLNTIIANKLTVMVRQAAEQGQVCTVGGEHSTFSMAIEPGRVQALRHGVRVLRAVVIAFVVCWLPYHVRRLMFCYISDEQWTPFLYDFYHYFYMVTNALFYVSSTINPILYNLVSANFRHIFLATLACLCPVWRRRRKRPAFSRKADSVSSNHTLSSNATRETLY
Description: flow cytometry on FaDu cells (internalization assay), 10 µg/mL ADC on ice for 60 min, anti-human IgG PE [left panel (Trimannosyl anti-NTSR1 ADC]. As for the experimental part:
FaDu cells were trypsinized, and then harvested and resuspended in FAC buffer. Controls: secondary Ab anti-human IgG PE (1:200) was added to the FaDu cells. The cells were incubated at 4° C. for time intervals of 0, 0.5, 2, 5 and 24 hours, and then washed by 1 mL of FACS buffer. The supernatant was discarded. Testing groups: FaDu cells were pre-incubated with 10 μg/mL ADCs of trimannosyl and anti-NTSR1 antibodies αNTSR1 (AKT2), αNTSR1 (AKT2 Hu/Hu) and αNTSR1 (AKT2 Hu/Hd) in FACS buffer on ice for 60 min, washed three times with FACS buffer, and then incubated at 37° C. for time intervals of 0, 0.5, 2, 5 and 24 hours.

Experiment [3] has as its target T1, NTSR1 on FaDu cells. Briefly: flow cytometry on FaDu cells, antibody at 1 ug/mL. On the procedure:
(§1) Anti-NTSR1 antibodies were used to detect cells that express NTSR1 on the cell surfaces, for example using FACS. NTSR1 expressing cells, FaDu, were harvested and re-suspended in 5% PBS/FBS buffer. The cells (1×10⁵) were incubated with anti-NTSR1 antibody (1-10 μg/ml) or negative control, at 4° C. for 1 hr, and then stained with goat anti-human IgG FITC conjugate ( 1/1000) at 4° C. for 1 hr. For each assay, two additional controls were prepared; one without primary antibody and the other one with absence of any antibody. All treated samples were analyzed with […]™ (BECTON DICKINSON®) and the results were processed by […]™ software (BECTON DICKINSON®).

The target of experiment [4] is T1, NTSR1 on FaDu cells. Briefly: flow cytometry on FaDu cells, antibody at 10 ug/ml. On the procedure: as §1
Experiment [5] concerns the target NTSR1 linear L2-biotin protein (human) (UniProt P30989). Description: ELISA titration, plate coated with NTSR1 linear L2-biotin protein, anti-human IgG-HRP.
The target is the same in experiment [6]. Description: ELISA on coated NTSR1 linear L2-biotin protein, non-linear regression.

Where a chain is given by its changes, count along the chain named.

NTSR1 protein, sequence (P30989 whole entry): as above

B1: humanized antibody AKT2 HuHd (antibody, V domains shown)
VH: QVQLVQSGAEVKKPGASVKVSCKASGYAFTSSWIHWVRQAPGQGLEWMGQIRPNSGNTYYNEKFKVRVTMTRDTSTSTVYMELSSLRSEDTAVYYCARYHYGFDYWGQGTLVTVSS
VL: DIQMTQSPSSLSASVGDRVTITCRSSQSIVHSNGNTYLEWYQQKPGKAPKLLIYKVSNRFSGVPSRFSGSGSGTDFTLTISSLQPEDFATYYCFQGAHLPWTFGQGTKVEIK
notes: Full-length humanized antibody; also called αNTSR1 (AKT2 Hu/Hd)
As to B1, in the experiment with NTSR1 protein, the Kd is 1.43 nM, the off-rate (koff) turned out to be 0.000657 s⁻¹ and the kon came out at 461000 M⁻¹ s⁻¹. In addition, the EC50 (read off the curve) in experiment [1] turned out to be 0.06 nM.

B2: αNTSR1 (AKT2 Hu/Hu) 4 seco-DUBA (antibody, V domains shown)
VH: B1 VH
VL: DIVMTQTPLSLSVTPGQPASISCRSSQSIVHSNGNTYLEWYLQKPGQSPQLLIYKVSNRFSGVPDRFSGSGSGTDFTLKISRVEAEDVGVYYCFQGAHLPWTFGQGTKVEIK
modifications: seco-DUBA payload conjugated (trimannosyl ADC); site of conjugation not given
notes: Antibody-drug conjugate of the humanized antibody AKT2 HuHu with seco-DUBA; also called trimannosyl anti-NTSR1 ADC of AKT2 HuHu
Turning to B2, the binding result with NTSR1 on FaDu cells [2] is reported as “binds”.

B3: humanized antibody AKT2 HuHu (antibody, V domains shown)
VH: B1 VH
VL: B2 VL
notes: Full-length humanized antibody; also called αNTSR1 (AKT2 Hu/Hu)
B3: in the experiment with NTSR1 protein, binding was characterised by a dissociation constant (Kd) of 1.03 nM, the koff stood at 0.000808 s⁻¹ and the kon was 788000 M⁻¹ s⁻¹. For the same molecule, in experiment [1], the EC50 (read off the curve) was 0.06 nM.

B4: αNTSR1 (AKT2 Hu/Hd) 4 seco-DUBA (antibody, V domains shown)
VH: B1 VH
VL: B1 VL
modifications: seco-DUBA payload conjugated (trimannosyl ADC); site of conjugation not given
notes: Antibody-drug conjugate of the humanized antibody AKT2 HuHd with seco-DUBA; also called trimannosyl anti-NTSR1 ADC of AKT2 HuHd
B4: the binding result in the experiment with NTSR1 on FaDu cells [2] is “binds”.

B5: humanized 7C3 IMGT (7C3 HuHu) (antibody, V domains shown)
VH: B1 VH with A28T, H100Y
VL: B2 VL with A97S
notes: Full-length antibody with human IgG1 / kappa constant regions (plasmids pTCAEDH 7C3 HUVH IgG1 and pTCAEDL 7C3 HUVL Kappa)
As for B5, in the experiment with NTSR1 on FaDu cells [3], the “% Flow binding (1 ug/mL)” value was determined as 64%. Further, the “% Flow binding (10 ug/ml)” value in the experiment with NTSR1 on FaDu cells [4] is 98%. The half-maximal effective concentration (EC50 (read off the curve)) in experiment [5] was found to be 0.03 nM. Moreover, the Kd in experiment [6] stood at 0.294 nM.

B6: humanized antibody 7C3 HuHd (antibody, V domains shown)
VH: B1 VH with A28T, H100Y
VL: B1 VL with A97S
notes: Full-length antibody from the human Fc vectors
For B6, the “% Flow binding (1 ug/mL)” value with NTSR1 on FaDu cells [3] is 73%. Also, in the experiment with NTSR1 on FaDu cells [4], the “% Flow binding (10 ug/ml)” value was 99%.

B7: mouse-human chimera antibody AKT2 (antibody, V domains shown)
VH: QVQLQQPGSVLVRPGASVKLSCKASGYAFTSSWIHWAKQRPGQGLEWIGQIRPNSGNTYYNEKFKVKATLTVDTSSSTAYVDLSSLTSEDSAVYYCARYHYGFDYWGQGTLVTVSS
VL: DVLMTQTPLSLPVSLGDQASISCRSSQSIVHSNGNTYLEWYLQKPGQSPKLLIYKVSNRFSGVPDRFSGSGSGTDFTLKISRVEAEDLGVYYCFQGAHLPWTFGGGTKLEIK
notes: Mouse variable domains on human constant regions; also called chimera AKT2 mAb; αNTSR1 (AKT2)
In the experiment with NTSR1 protein, B7 gave a Kd of 1.61 nM, an off-rate constant (koff) of 0.000656 s⁻¹ and a kon of 407000 M⁻¹ s⁻¹. The EC50 (read off the curve) in experiment [1] was found to be 0.06 nM.

B8: αNTSR1 (AKT2) 4 seco-DUBA (antibody, V domains shown)
VH: B7 VH
VL: B7 VL
modifications: seco-DUBA payload conjugated (trimannosyl ADC); site of conjugation not given
notes: Antibody-drug conjugate of the mouse-human chimera antibody AKT2 with seco-DUBA; also called trimannosyl anti-NTSR1 ADC of AKT2
Regarding B8, the binding result with NTSR1 on FaDu cells [2] is “binds”.

B9: mouse-human chimera antibody 7C3 MM (antibody, V domains shown)
VH: B7 VH with A16D, K19M, A28T, L45P, H100Y, L111T
VL: B7 VL with A97S
notes: Mouse 7C3 variable domains sub-cloned into the human Fc chimera expression vectors pTCAEDH and pTCAEDL; The humanized plasmids are named IgG1 and Kappa; also called m7C3; mAb 7C3 MM
With B9, in the experiment with NTSR1 on FaDu cells [3], the “% Flow binding (1 ug/mL)” value turned out to be 31%. Further, the “% Flow binding (10 ug/ml)” value with NTSR1 on FaDu cells [4] was determined as 91%. In experiment [5], this molecule came in with a concentration giving a half-maximal response (EC50 (read off the curve)) of 0.07 nM. Further, the Kd in experiment [6] came to 0.676 nM.
